From patent US11278600B2, “Human alpha-galactosidase variants” (Codexis, Inc., priority 2014, dated 2022)

Columns and labels:
Format in all cases: biochemical
[1] = HTP-analysis of yeast culture supernatants, no challenge (MUGal hydrolysis); details: activity of the variant/activity of WT GLA (SEQ ID NO: 5), yeast supernatant
In short: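 GLA variants expressed in yeast INVSc1, secreted into SD-Ura broth over 66-84 h at 30° C; clarified supernatants tested without challenge. Supernatant mixed with McIlvaine buffer pH 4.8 and 2 mM MUGal (citrate/KCl, pH 4.6), 37° C for 30-180 min, carbonate-quenched, fluorescence Ex 355/Em 448 nm.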

[2] = HTP-analysis of supernatants pretreated with acid (MUGal hydrolysis); details: challenge at pH 4.2; activity of the variant/activity of WT GLA (SEQ ID NO: 5); yeast supernatant
In short: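 GLA variants were secreted from INVSc1 yeast grown 66-84 h at 30° C. in SD-Ura with 2% glucose; supernatants were mixed with McIlvaine buffer pH 3.3-4.3 and held at 37° C. for 1-3 h. Residual activity on MUGal at pH 4.8 was then measured by fluorescence.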

[3] = HTP-analysis of supernatants pretreated with base (MUGal hydrolysis); details: challenge at pH 7.1; activity of the variant/activity of WT GLA (SEQ ID NO: 5); yeast supernatant
In short: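 GLA variants secreted from yeast INVSc1; culture supernatants pre-incubated with McIlvaine buffer pH 7.0–8.2 or 200 mM bicarbonate pH 9.1–9.7 at 37° C. for 1–18 h. Residual activity: MUGal (4 mM stock) hydrolysis at pH 4.3–4.8, 37° C., 30–180 min, carbonate quench; fluorescence Ex 355/Em 448 nm.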

Row | Molecule | Relative Activity of GLA Variants After No Challenge (NC) [1] | Relative Activity of GLA Variants After Challenge at pH 4.2 [2] | Relative Activity of GLA Variants After Challenge at pH 7.1 [3]
1 | 86 (protein, Synthetic Polypeptide sequence of Variant No. 86 of mature Human GLA) LDNGLARTPTMGWLHWERFMCNLDCQEEPDSCISEKLFMEMAELMVSEGWKDAGYEYLCIDDCWMAPQRDSEGRLQADPQRFPHGIRQLANYVHSKGLKLGIYADVGNKTCAGFPGSFGYYDIDAQTFADWGVDLLKFDGCYCDSLENLADGYKHMSLALNRTGRSIVYSCEWPLYMWPFQKPNYTEIRQYCNHWRNFADIDDSWKSIKSILDWTSFNQERIVDVAGPGGWNDPDMLVIGNFGLSWNQQVTQMALWAIMAAPLFMSNDLRHISPQAKALLQDKDVIAINQDPLGKQGYQLRQGDNFEVWERPLSGLAWAVAMINRQEIGGPRSYTIAVASLGKGVACNPACFITQLLPVKRKLGFYEWTSRLRSHINPTGTVLLQLENTMQMSKPLLL | ++ (++ = >1.5 to 2.5 relative activity over WT GLA (SEQ ID NO: 5)) | ++ (++ = >1.5 to 2.5 relative activity over WT GLA (SEQ ID NO: 5)) | ++ (++ = >1.5 to 2.5 relative activity over WT GLA (SEQ ID NO: 5))
2 | 88 (protein, Synthetic Polypeptide sequence of Variant No. 88 of mature Human GLA) LDNGLARTPTMGWLHWERFMCNLDCQEEPDSCISEKLFMEMAELMVSEGWKDAGYEYLCIDDCWMAPQRDSEGRLQADPQRFPHGIRQLANYVHSKGLKLGIYADVGNKTCAGFPGSFGYYDIDAQTFADWGVDLLKFDGCYCDSLENLADGYKHMSLALNRTGRSIVYSCEWPLYMWPFQKPNYTEIRQYCNHWRNFADIDDSWKSIKSILDWTSFNQERIVDVAGPGGWNDPDMLVIGNFGLSWNQQVTQMALWAIMAAPLFMSNDLRHISPQAKALLQDKDVIAINQDPLGKQGYQLRQGDNFEVWERPLSGLAWAVAMINRQEIGGPRSYTIAVASLGKGVACNPACFITQLLPVKRKLGFYEWTSRLRSHINPTGTVLLQLENTMQMSKSLLL | + (+ = 0.5 to 1.5 relative activity over WT GLA (SEQ ID NO: 5)) | ++ (++ = >1.5 to 2.5 relative activity over WT GLA (SEQ ID NO: 5)) | + (+ = 0.5 to 1.5 relative activity over WT GLA (SEQ ID NO: 5))
3 | 87 (protein, Synthetic Polypeptide sequence of Variant No. 87 of mature Human GLA) LDNGLARTPTMGWLHWERFMCNLDCQEEPDSCISEKLFMEMAELMVSEGWKDAGYEYLCIDDCWMAPQRDSEGRLQADPQRFPHGIRQLANYVHSKGLKLGIYADVGNKTCAGFPGSFGYYDIDAQTFADWGVDLLKFDGCYCDSLENLADGYKHMSLALNRTGRSIVYSCEWPLYMWPFQKPNYTEIRQYCNHWRNFADIDDSWKSIKSILDWTSFNQERIVDVAGPGGWNDPDMLVIGNFGLSWNQQVTQMALWAIMAAPLFMSNDLRHISPQAKALLQDKDVIAINQDPLGKQGYQLRQGDNFEVWERPLSGLAWAVAMINRQEIGGPRSYTIAVASLGKGVACNPACFITQLLPVKRKLGFYEWTSRLRSHINPTGTVLLQLENTMQMSKRLLL | + (+ = 0.5 to 1.5 relative activity over WT GLA (SEQ ID NO: 5)) | ++ (++ = >1.5 to 2.5 relative activity over WT GLA (SEQ ID NO: 5)) | + (+ = 0.5 to 1.5 relative activity over WT GLA (SEQ ID NO: 5))
